Measured values published in the nanobody polyreactivity screen of Harvey et al. (2022).

Assay: yeast display, Sf9 membrane polyspecificity reagent, FACS + sequencing; frameworks hold sequencing errors
Procedure, shortened: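 Nanobodies came from a synthetic yeast display library in Saccharomyces cerevisiae BJ5465, induced with galactose for 36–48 hours and stained for 1 hour at 4 °C with 10% biotinylated, detergent-solubilized Sf9 membrane reagent. Cells were enriched on streptavidin microbeads and then FACS-sorted, with low and high (top ~1%) gates set on anti-HA fluorescence for expression and streptavidin fluorescence for reagent binding. Each polyreactivity label reflects the gate a clone came from. Genes were amplified by colony PCR, sequenced by MiSeq 2 × 250 and filtered by CDR length.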

Sequence	polyreactivity (PSR sort gate)
QVQLVESGGGLVQAGGSLRLSCAASGIILDHYAMGWYRQAPGKERELVAAISSGTRTNYADSVKGRFSISRDNAKHTVSLQMNSLKPEDTAVYNCAATIYRRYRSKYSITSYWGQGTQVTVSS	high polyreactivity
QVHLVESGGGLVQAGGSIRLSCAASGRTLDPYTMGWYRQAPGKERELVAAITSSGGRTTYADSVKGRFTISRDNAKITVYLQMNSLKPEDTAVYYCAKKFRPVYRSQYLRYSWGQGTQVTVSS	low polyreactivity
QVQLVESGGGLVQAGGSLRLSCAASGRIYRINALGWYRQAPGKERELVATITSGGGSTYADSVKGRFTISRDNAKNTVYLQMNSLKPEDTAVYFCAARSRIGRYTYDYWGQGTQVTVSS	high polyreactivity
QVQLVESGGRLFQAGGSLRLSCAASGRTWGYEMGWYRQATGKERELVAAIRNGASTYYADSVKGRFTISRDNAKKTVYFHMNSRKPEDTAVYYCDADYTVRVVATYDYWGQGTQVTVSS	low polyreactivity
QVQLVESGGGLVQARGSLRLSCAASGSTFYYYAMGWYRQAPGKEREFVAAISWTGGTTYYADSVKGRFTISRDIAKNTVYLQMNSLKPEDTAVYYCNADPWWDSDWGYDYWGQGTQVTVSS	low polyreactivity
QVHLVESGGGLVHAGGSLRLSCAASGSTFSYYTMGWYRQAPGKERELVAAITRRGDSTYADSVKGRFTISRDNAKNTVYLQMNSLKPEDTAVYYCAADASVGVSGMDYWGQGTQVTVSS	low polyreactivity
QVQLVESGVGLVQAGGILRLSCAASGSSFRGYAMGWYRQAPGKERELVAAISSRGARTHYADSVKGRFTISRDNAKNTVYLQMNRLKPEDTAVYYCNKRQVFVSTGEYEFDYWGQGTQVTVSS	low polyreactivity
QVQLVESGGGLVQAGGSLRLSCAASGYTFRAYVMGWYRQAPGKERELVAGITRRGGTTYYADSVKGRFTISRDNAKNTVYLQMNSLKTEDTAVYYCNAVYRSGSIPYDSWGQGTQVTVSS	high polyreactivity
HVQLVESGGGLVQARGSLRLSCAASGSTFDNYTMGWYRQAPGKERELVAAITRNSGSTYYADSVKGRFTISRDNEKNSVYLHMNSLKPEDTAVYYCAADSYYRRYFGWYEYWGQGTQVTVSS	high polyreactivity
QDQLVESGGGLVQAGGRLRLSCAASGRIIRTYARGWDRQAPGKERELVAAITNGDSTNYADSVMGRFTMSRDNAKNTVYLQMNSLKPEDTAVYYCAVGAVVPGRRRRTYYYWGQGTQVTVSS	high polyreactivity
QVQLVESGGGLVQAGGSLRLSCAASGRTFRYYAMGLYRQAPGKERELVAAIRSGGTTYYADSVKGRFTISRDNAKNTVYLQMNSLKPEDTAVYYCAADGGKGGIRFGYWGQGTQVTVSS	high polyreactivity
QVQLVESGGGLVQAGGSLRLSCAASGSTFYLNAMGWYRQAPGKERELVAAITVSGGSTYYADSVKGRFTISRDNAKNTVYLQMNSLKPEDTAVYYCARELLSPTYPRWYYYWGQGTQVTVSS	low polyreactivity
QVQLVESGGGLVQAGGSLRLSCAPSGFTFSYNAMGWYRQAPGKERELVAAISNSGGSTYYADSVKGRFTISRDNAKYTVYLQMNSLKPEDTAVYYCAADVAQVGYQVGVSEIYPGYEYWGQGTQVTVSS	low polyreactivity
QVQLVESGGGLVQAGGSLRLSCAASGRTFTGYAMGWYRQAPGKERELVAAMSASGGSTYYADSVKGRFTISRDNAKNTVYLQMNSLKPEDTAVYYCAAETWYSVLWEEGYDYWGQGTQVTVSS	low polyreactivity
QVQLVESGGGLVQAGGSLRLSCAASGRTFLTNTMGWYRQAPGQEREWVATISNGGRTNYADSVKGRFTISRDNAKNTVYLQMNSLKPEDTAVYYCAKDYRAYHPHWYGSTFGWGQGTQVTVSS	high polyreactivity
QVQLLESGGGLVQAGGSLRLSCAPSGFTYRYNAMVWYRQAPGIERELVAAISSRGGSTYYADSVKGRFTISRDNAKNTVYFQMNSLKPEDTGVYYCARDDWVYTNVEMDYWGQGTQVTVSS	high polyreactivity

Sequence	polyreactivity (PSR sort gate)
QVQLVESGGGLVQAGGSLRLSCAASGRIFAFYAMGWSRPAPGKERELVAAITSGGSTKYADSVKGRFTISRDNAKNTVYLQMNSLKPEDTAVYYCAAQYRYQRYSYAMEYWGQCTQVTVSS	high polyreactivity
QVQLVESGGGLVQAGGSLRLSCADSGSIFRVNAMGWYRQAPGKDRELVAAISSGGSTHYADSVKGRFTISRDNAKNTVYLQMNSLKPEDTAVYYCAVRYALVPYLWYYWGQGTQVTVSS	high polyreactivity
QFQLVESGGGLVQAGVSLRLSCAASGRIFSLYAMGWYRQAPGKERELVAAISYSGGSTYADSVKGRFTFSRDNAKNTVFLQMNSLKPEDTAVYYCAAEEYLAYAQFDYWGQGTQVTVSS	low polyreactivity
QVQLVESGGGLVQAGGSLRLSCAASGLSFYPNGMGWYREAPGKERELVAAITYSDGSTYYADSVKGRFSISRDNAKNTVYLQMNSLKPEDTAVYYGNRVTRWTYNYWGQGTQVTVSS	high polyreactivity
QVQLVESGGGLVQAGGSLRLSCAASGRTFVPNAMGWYRQAPGKERELVAAISWSGDSTYYADSVKGRFTISRDNAKNTVYLQMNSLKPEDTAVYYCAADPFFGVSIGGLKYHFDYWGQGTQVTVSS	low polyreactivity
QVQLVESGGGLVQAGGSLRLSCAASGSTFSANGMGWYRQAPGKERELVAAISARGGITYYADSVKGRFTISRDNAKNTVYLQMNSVKPEDTAVYYCNQRKYYRSTKYNYWGQGTQVTVSS	high polyreactivity
QVQLVESGGVLVQAGGSLLLSCAASGFTFGCYGMGWYRQARGKERELGAAITKSGGRTYYADSVKGRFTISRDNAKNTVYLQMNSLLREDTAVYYCAASSQGDGGYWGQGSQVTVSS	high polyreactivity
QVQLHESGGGLVQAGGGLRLSCAASGSISSTGFMGWYRQPPGKEREPVAAIAPGTTTYYADSVKGRFTISRDNAKNTVYLQMISLRPEDTAVYYCAVFTDNRVAFLYWGQGTQVTVSS	low polyreactivity
QVQLVESGGGLVQAGGSLRLSCAASGSIFSSNVMGWYRQAPGKERELVAAITRRGSTTYYADSVKGRFTISRDNAKNTVYLQMNSLKPEDTAVYYCATKAKYGRQYLMDYWGQGTQVTVSS	high polyreactivity
QVQLVESGGGLVQTGGSLRLSCAASGIIFYYYAMGWYRQAPGKERELVAAISWSGDGTYYADSVKGRFTISRDNAKNTVYLQMNSLKPEDTAVYYCAALNDGFTAYDYLDEYTDYGYWGQGTQVTVSS	low polyreactivity
QVQLVESGGRLVQAGGSLRLTCAASGFIFKTNGMRWYRKAPGKERELVAAITSRGGSTYYADSVKGRFTISRDNAKNNVYLQMNSLKPEDTAVYYCAARGSRYTDYDYWGQGTHVTVSS	high polyreactivity
QVQLVESGGGLVQAGGSLRLSCAASGSIFGLYAMGWYIQAPGKERELVATISKSGVSTYYADSVKGRFTISRDNEKNTVYLQMKSLKPEVTAVYYCNADISRDNDFDYWGQGTQVTVSA	low polyreactivity
QVQLVESGGGLVQAGGSLRLSCAASGFIFWYYDMGWYRQAPGKERELVAAISDRGGSTSYADSVKGRFTISRDNAKNTVYLQMNSLKPEDTAVYSCAVDRSLSPFAYDYWGQGTQVTVSS	low polyreactivity
QVQLVESGGGLVQAGCSLRLSCAASGRTFNYYAMGWYRQAPGKERELVAAISVSGVRTYYADSVKGRFTISRDNAKNSVYLQMNSLKPEDTAVYYCAGLYQSVRGYVYWGQGTQVTVSS	high polyreactivity
QVQLVESGGGLVQAGGSLRLSCAASGSTFRSYAMGWYRQAPGKERELVAAISRGGSTYYADSVKGRFTISRDNAKNTVYLQMNSLKPEDTAVYYCAARPPRGSWQYDYWGQGTQVTVSS	high polyreactivity
